We go through seven proteins from publication PMC11216086, “The structure of TRAF7 coiled-coil trimer provides insight into its function in zebrafish embryonic development” (Journal of Molecular Cell Biology, 2024).

Changes are numbered by the printed parent chain.

The labels stand for the following.
B1: human TRAF7 CC (270–379 aa) F337S (domain or fragment, UniProt Q6Q0C0 270-379, looked up)
chain: GNQDTYETHLETCRFEGLKEFLQQTDDRFHEMHVALAQKDQEIAFLRSMLGKLSEKIDQLEKSLELKSDVLDENQSKLSEDLMEFRRDASMLNDELSHINARLNMGILGS
notes: source: E. coli BL21 (DE3), purified (nickel-NTA, Superdex 200 size-exclusion chromatography)
B2: human TRAF7 CC (270–379 aa) K346E (domain or fragment, UniProt Q6Q0C0 270-379, looked up)
chain: B1 chain with S68F, K77E
notes: Variant found in patients with developmental disorders; source: E. coli BL21 (DE3), purified (nickel-NTA, Superdex 200 size-exclusion chromatography)
B3: human TRAF7 CC (270–379 aa) I368S (domain or fragment, UniProt Q6Q0C0 270-379, looked up)
chain: B1 chain with S68F, I99S
notes: as for B1
B4: human TRAF7 CC (270–379 aa) R371G (domain or fragment, UniProt Q6Q0C0 270-379, looked up)
chain: B1 chain with S68F, R102G
notes: as for B2
B5: human TRAF7 CC (270–379 aa) Q310L (domain or fragment, UniProt Q6Q0C0 270-379, looked up)
chain: B1 chain with Q41L, S68F
notes: as for B1
B6: human TRAF7 CC (fragment 270–379 aa) (domain or fragment, UniProt Q6Q0C0 270-379, looked up)
chain: B1 chain with S68F
notes: Cloned in pET32M3C; tags 'were cleaved by HRV 3C protease when needed'; also called TRAF7 CC region; TRAF7 coiled-coil domain; source: E. coli BL21 (DE3), purified (nickel-NTA, Superdex 200 size-exclusion chromatography)
B7: human TRAF7 ZF-CC (fragment 221–379 aa) (domain or fragment, UniProt Q6Q0C0 221-379, looked up)
chain: DHEGSCDYRPVRCPNNPSCPPLLRMNLEAHLKECEHIKCPHSKYGCTFIGNQDTYETHLETCRFEGLKEFLQQTDDRFHEMHVALAQKDQEIAFLRSMLGKLSEKIDQLEKSLELKFDVLDENQSKLSEDLMEFRRDASMLNDELSHINARLNMGILGS
notes: as for B1

The data set deals with the molecule itself. Nature of the data set: SEC-MALS; Superdex 200 gel filtration in 50 mM Tris pH 8.0, 100 mM NaCl, 10 mM EDTA, 1 mM DTT; three-angle light scattering (mini-DAWN TRISTAR) and refractive index detector; self-association (trimer).
For B1, the binding result is given as “binds”.
Consider B2, for which the binding result is “binds”.
With B3, the binding result is “binds”.
Consider B4, for which the binding result is recorded as “binds”.
Still for that read-out and setting: the entry for B5 is “binds”.
For the protein B6, the “stoichiometry N” value amounted to 3.
Regarding B7, the “stoichiometry N” value was 3.
